Drawing on article PMC8059821, this text covers Kd for 1 substance.

The target in the test is hACE2-NN-Fc 5mut (human) (UniProt Q9BYF1). The test is described as follows: SPR.

Usually Kd stands for the free concentration of one partner at which half of the binding sites on the other are occupied at equilibrium, for simple one-to-one binding. Lower therefore signals higher affinity. “soluble monomeric SARS2-RBD (from UniProt P0DTC2) (domain or fragment)”: the Kd worked out at 5.45 nM.
